Measurements taken from article PMC11417369, “DNA sequence and chromatin differentiate sequence-specific transcription factor binding in the human malaria parasite Plasmodium falciparum”.
Changes are numbered by the printed parent chain.

T1: PF3D7_0420300 D1 (Plasmodium falciparum, UniProt Q8I1N6 1956-2015)
T1 sequence: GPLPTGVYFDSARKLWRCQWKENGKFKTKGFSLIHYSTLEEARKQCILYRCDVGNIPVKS

T2: AP2-HC D1 (Plasmodium falciparum, UniProt Q8IKR9 1316-1374)
T2 sequence: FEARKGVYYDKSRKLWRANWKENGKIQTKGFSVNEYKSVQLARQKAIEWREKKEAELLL

B1: CACACA_negctrl_site680 (dsDNA)
DNA 1: AACACTCAAAAAAATTTAAATAAAAAAAAAAAAAAA
DNA 2: TTTTTTTTTTTTTTTATTTAAATTTTTTTGAGTGTT
B2: CACACA_negctrl_site1152 (dsDNA)
DNA 1: TCATATTTGCCTTTTTATTTAGAACACAAAAAAAAA
DNA 2: TTTTTTTTTGTGTTCTAAATAAAAAGGCAAATATGA
B3: CACACA_negctrl_site1235 (dsDNA)
DNA 1: TTTAAAAAAAAAAAAAAAAAAAAAAAAAAAAATTTG
DNA 2: CAAATTTTTTTTTTTTTTTTTTTTTTTTTTTTTAAA
B4: CACACA_negctrl_site272 (dsDNA)
DNA 1: TACCTTTCTTATTATTGAAAAGGAATATATAAATAG
DNA 2: CTATTTATATATTCCTTTTCAATAATAAGAAAGGTA
B5: CACACA_negctrl_site148 (dsDNA)
DNA 1: TTTTTGATGAAATATTATTTTCCTGACTTGGATTAA
DNA 2: TTAATCCAAGTCAGGAAAATAATATTTCATCAAAAA
B6: CACACA_negctrl_site1092 (dsDNA)
DNA 1: TCAAAATGTGACATAAAAGAAAAAAAAAAAAAAAAA
DNA 2: TTTTTTTTTTTTTTTTTCTTTTATGTCACATTTTGA
B7: CACACA_negctrl_site1096 (dsDNA)
DNA 1: ATTATATTCTTTACTACCAATTAGTAGAAAATAAAA
DNA 2: TTTTATTTTCTACTAATTGGTAGTAAAGAATATAAT
B8: CACACA_negctrl_site1762 (dsDNA)
DNA 1: TTTTTTTCTTCTTTTCTCTTAAAAATATTGAATATT
DNA 2: AATATTCAATATTTTTAAGAGAAAAGAAGAAAAAAA
B9: CACACA_negctrl_site1411 (dsDNA)
DNA 1: AATTAAAGGAATTACAACTTTGCAAGCGCAACATAA
DNA 2: TTATGTTGCGCTTGCAAAGTTGTAATTCCTTTAATT
B10: CACACA_negctrl_site828 (dsDNA)
DNA 1: ATATATATATATGTTTATTTATTTGAACGATTGTGG
DNA 2: CCACAATCGTTCAAATAAATAAACATATATATATAT
B11: CACACA_negctrl_site844 (dsDNA)
DNA 1: AATATCATCCTTTTTTTTTATAAAATTTAAAATATA
DNA 2: TATATTTTAAATTTTATAAAAAAAAAGGATGATATT
B12: CACACA_negctrl_site580 (dsDNA)
DNA 1: TATTAAAAAAAAAAATAAAAAAATAAAATAAAATAA
DNA 2: TTATTTTATTTTATTTTTTTATTTTTTTTTTTAATA
B13: CACACA_negctrl_site215 (dsDNA)
DNA 1: ATAAAATATTATATATATATATATATATATATATAT
DNA 2: ATATATATATATATATATATATATATAATATTTTAT
B14: CACACA_negctrl_site1162 (dsDNA)
DNA 1: ACACAAAAAAAAAAAAAAAAAAAAAAAAAAAAGGAA
DNA 2: TTCCTTTTTTTTTTTTTTTTTTTTTTTTTTTTGTGT
B15: CACACA_negctrl_site398 (dsDNA)
DNA 1: TATTTATTTATTTATTTATTTATTTATTTATATTTA
DNA 2: TAAATATAAATAAATAAATAAATAAATAAATAAATA
B16: CACACA_negctrl_site347 (dsDNA)
DNA 1: TTATATATATTTAAAAAAATAACATAAATAAATAAA
DNA 2: TTTATTTATTTATGTTATTTTTTTAAATATATATAA
B17: CACACA_negctrl_site1828 (dsDNA)
DNA 1: ATCTCAAATATAATAAATTATTAGGTATATATATAT
DNA 2: ATATATATATACCTAATAATTTATTATATTTGAGAT
B18: CACACA_negctrl_site929 (dsDNA)
DNA 1: ACAGATATACATAAAAAAAAAATAATTTTACATATA
DNA 2: TATATGTAAAATTATTTTTTTTTTATGTATATCTGT
B19: CACACA_negctrl_site809 (dsDNA)
DNA 1: AAATAATATTTTTTTTTTTTTTTTTTTTTATGTTAT
DNA 2: ATAACATAAAAAAAAAAAAAAAAAAAAATATTATTT
B20: CACACA_negctrl_site217 (dsDNA)
DNA 1: TAATTTCATCATATTTGTTCCTTCTCAAAATTTTTT
DNA 2: AAAAAATTTTGAGAAGGAACAAATATGATGAAATTA
B21: CACACA_negctrl_site39 (dsDNA)
DNA 1: AATATATCAAAAATTGGATAGTTTCTTATAAAAAAT
DNA 2: ATTTTTTATAAGAAACTATCCAATTTTTGATATATT
B22: CACACA_negctrl_site607 (dsDNA)
DNA 1: TGTGTCAAGTTTAATAAACGCATATAATATATATGA
DNA 2: TCATATATATTATATGCGTTTATTAAACTTGACACA
B23: CACACA_negctrl_site1022 (dsDNA)
DNA 1: ATAAATTGTTCTTTTTGTGTAAACAGAATATTAAAA
DNA 2: TTTTAATATTCTGTTTACACAAAAAGAACAATTTAT
B24: CACACA_negctrl_site1766 (dsDNA)
DNA 1: ACACATATATATATATATATATATATATATATATAT
DNA 2: B24 DNA 1 with C2T, C4T, A33G, A35G
B25: CACACA_negctrl_site1685 (dsDNA)
DNA 1: B24 DNA 1 with C2T, C4T, T12A, T18A
DNA 2: B24 DNA 1 with C2T, C4T, A19T, A25T
B26: CACACA_negctrl_site1635 (dsDNA)
DNA 1: TTTTGATATAAATATTAGATTAATAAATAAAAAAAT
DNA 2: ATTTTTTTATTTATTAATCTAATATTTATATCAAAA
B27: CACACA_negctrl_site1399 (dsDNA)
DNA 1: TATTTTAATTTTTTTTTGTTTTTTCTAATACATGTA
DNA 2: TACATGTATTAGAAAAAACAAAAAAAAATTAAAATA
B28: CACACA_negctrl_site566 (dsDNA)
DNA 1: TATTTTTATACAATTTAACACGGGTTATAAAATGTA
DNA 2: TACATTTTATAACCCGTGTTAAATTGTATAAAAATA
B29: CACACA_negctrl_site721 (dsDNA)
DNA 1: TTTTAAAAAAAATAAAAAATAAACAATAATAAATAA
DNA 2: TTATTTATTATTGTTTATTTTTTATTTTTTTTAAAA
B30: CACACA_negctrl_site1531 (dsDNA)
DNA 1: TATTTCCATTCATAATTTTGTAGAATATATAACCGT
DNA 2: ACGGTTATATATTCTACAAAATTATGAATGGAAATA
B31: CACACA_negctrl_site1232 (dsDNA)
DNA 1: AATATTTTTCAATTTCATGTGCATTCATTGAAGTTA
DNA 2: TAACTTCAATGAATGCACATGAAATTGAAAAATATT
B32: CACACA_negctrl_site1028 (dsDNA)
DNA 1: ATTTTTTTATGTACACAAAAAAAAAAAAAAATTTAA
DNA 2: TTAAATTTTTTTTTTTTTTTGTGTACATAAAAAAAT
B33: CACACA_negctrl_site1 (dsDNA)
DNA 1: TTTTTTATTGTGATACGTATATTATTTTTTGATAAA
DNA 2: TTTATCAAAAAATAATATACGTATCACAATAAAAAA
B34: CACACA_negctrl_site1512 (dsDNA)
DNA 1: ACGAATTAAATGGATTAATATATATATGTATATTTA
DNA 2: TAAATATACATATATATATTAATCCATTTAATTCGT
B35: CACACA_negctrl_site660 (dsDNA)
DNA 1: TTTTCTTAATATTTCGTTTTACATAAACCTTTTAAA
DNA 2: TTTAAAAGGTTTATGTAAAACGAAATATTAAGAAAA
B36: CACACA_negctrl_site1260 (dsDNA)
DNA 1: TAAATCATTTCATGGCATTTACACAAAATTTTTTAA
DNA 2: TTAAAAAATTTTGTGTAAATGCCATGAAATGATTTA
B37: CACACA_negctrl_site474 (dsDNA)
DNA 1: TAAAAAAAGGAAAACATACAATTCTATTTTTCAATA
DNA 2: TATTGAAAAATAGAATTGTATGTTTTCCTTTTTTTA
B38: CACACA_negctrl_site368 (dsDNA)
DNA 1: TTTTTCATTTCTGCATTTATTTATAAATAAATATTT
DNA 2: AAATATTTATTTATAAATAAATGCAGAAATGAAAAA
B39: CACACA_negctrl_site842 (dsDNA)
DNA 1: ACTAAAAGATATATAATTTCTTTCTTATTTATTTTT
DNA 2: AAAAATAAATAAGAAAGAAATTATATATCTTTTAGT
B40: CACACA_negctrl_site484 (dsDNA)
DNA 1: ATTCATATTAAATATATATATATATATATATATATA
DNA 2: TATATATATATATATATATATATATTTAATATGAAT
B41: CACACA_negctrl_site1286 (dsDNA)
DNA 1: TTGTATTCCTTTTACAACTACCATGAAGAGAATTTT
DNA 2: AAAATTCTCTTCATGGTAGTTGTAAAAGGAATACAA
B42: CACACA_negctrl_site629 (dsDNA)
DNA 1: TGCTTATATCTTATAATATTTATACATCATAATAAG
DNA 2: CTTATTATGATGTATAAATATTATAAGATATAAGCA

biological target: T1, PF3D7_0420300 D1; assay: gcPBM; about 25 ug protein; PBS, 1% milk, 0.2 mg/ml BSA, salmon testes DNA, 0.03% Triton X-100; settings: tags: N-terminal GST (pGEX-4T-1), kept; label: surface-attached array probe

Row | Binder | binding signal
1 | B1 | 8.7 ln median PBM intensity, better of two orientations
2 | B2 | 8.77 ln median PBM intensity, better of two orientations
3 | B3 | 8.59 ln median PBM intensity, better of two orientations
4 | B4 | 8.89 ln median PBM intensity, better of two orientations
5 | B5 | 8.86 ln median PBM intensity, better of two orientations
6 | B6 | 8.62 ln median PBM intensity, better of two orientations
7 | B7 | 8.9 ln median PBM intensity, better of two orientations

biological target: T2, AP2-HC D1; assay: as above; settings: tags: N-terminal GST (pGEX-4T-1), kept; label: surface-attached array probe

Row | Binder | binding signal
8 | B8 | 9.49 ln median PBM intensity, better of two orientations
9 | B9 | 9.47 ln median PBM intensity, better of two orientations
10 | B1 | 9.05 ln median PBM intensity, better of two orientations
11 | B10 | 9.44 ln median PBM intensity, better of two orientations
12 | B11 | 9.5 ln median PBM intensity, better of two orientations
13 | B12 | 9.47 ln median PBM intensity, better of two orientations
14 | B13 | 9.5 ln median PBM intensity, better of two orientations
15 | B14 | 9.5 ln median PBM intensity, better of two orientations
16 | B15 | 9.48 ln median PBM intensity, better of two orientations
17 | B16 | 9.47 ln median PBM intensity, better of two orientations
18 | B17 | 9.46 ln median PBM intensity, better of two orientations
19 | B18 | 9.47 ln median PBM intensity, better of two orientations
20 | B19 | 9.46 ln median PBM intensity, better of two orientations
21 | B20 | 9.48 ln median PBM intensity, better of two orientations
22 | B21 | 9.45 ln median PBM intensity, better of two orientations
23 | B22 | 9.51 ln median PBM intensity, better of two orientations
24 | B23 | 9.48 ln median PBM intensity, better of two orientations
25 | B24 | 9.45 ln median PBM intensity, better of two orientations
26 | B25 | 9.5 ln median PBM intensity, better of two orientations
27 | B26 | 9.46 ln median PBM intensity, better of two orientations
28 | B2 | 9.29 ln median PBM intensity, better of two orientations

Row | Binder | binding signal
29 | B27 | 9.45 ln median PBM intensity, better of two orientations
30 | B28 | 9.46 ln median PBM intensity, better of two orientations
31 | B29 | 9.49 ln median PBM intensity, better of two orientations
32 | B30 | 9.51 ln median PBM intensity, better of two orientations
33 | B31 | 9.51 ln median PBM intensity, better of two orientations
34 | B32 | 9.48 ln median PBM intensity, better of two orientations
35 | B3 | 9.1 ln median PBM intensity, better of two orientations
36 | B33 | 9.51 ln median PBM intensity, better of two orientations
37 | B4 | 9.13 ln median PBM intensity, better of two orientations
38 | B34 | 9.5 ln median PBM intensity, better of two orientations
39 | B35 | 9.51 ln median PBM intensity, better of two orientations
40 | B5 | 9.49 ln median PBM intensity, better of two orientations
41 | B36 | 9.48 ln median PBM intensity, better of two orientations
42 | B37 | 9.49 ln median PBM intensity, better of two orientations
43 | B38 | 9.47 ln median PBM intensity, better of two orientations
44 | B39 | 9.49 ln median PBM intensity, better of two orientations
45 | B6 | 9 ln median PBM intensity, better of two orientations
46 | B40 | 9.51 ln median PBM intensity, better of two orientations
47 | B41 | 9.49 ln median PBM intensity, better of two orientations
48 | B7 | 9.31 ln median PBM intensity, better of two orientations
49 | B42 | 9.47 ln median PBM intensity, better of two orientations
